In paper PMC3201875:

How the values were obtained:
[1] = target: SBP-tagged LeishIF4E-1; experiment: pull-down
[2] = target: SBP-tagged LeishIF4E-4; experiment: pull-down

Substance | percent of the total protein in the elution fraction [1] | percent of the total protein in the elution fraction [2]
Leishmania 4E-Interacting Protein (Leish4E-IP) (natural protein) | 14% | 
LeishIF4G-3 (natural protein) |  | 9%
LeishIF4A-1 (natural protein) | 3% | 3.4%
